For three molecules, EC50 results are on record in patent US20260028422A1 (CONCEPT TO MEDICINE BIOTECH, published 2026).

Assay [1] has as its target T1, human MerTK expressed on cells (human, UniProt Q12866 21-999).
T1 construct: whole, on cells; also called CHO-K1-hMerTK; CHO-K1-MerTK
T1 sequence (looked up): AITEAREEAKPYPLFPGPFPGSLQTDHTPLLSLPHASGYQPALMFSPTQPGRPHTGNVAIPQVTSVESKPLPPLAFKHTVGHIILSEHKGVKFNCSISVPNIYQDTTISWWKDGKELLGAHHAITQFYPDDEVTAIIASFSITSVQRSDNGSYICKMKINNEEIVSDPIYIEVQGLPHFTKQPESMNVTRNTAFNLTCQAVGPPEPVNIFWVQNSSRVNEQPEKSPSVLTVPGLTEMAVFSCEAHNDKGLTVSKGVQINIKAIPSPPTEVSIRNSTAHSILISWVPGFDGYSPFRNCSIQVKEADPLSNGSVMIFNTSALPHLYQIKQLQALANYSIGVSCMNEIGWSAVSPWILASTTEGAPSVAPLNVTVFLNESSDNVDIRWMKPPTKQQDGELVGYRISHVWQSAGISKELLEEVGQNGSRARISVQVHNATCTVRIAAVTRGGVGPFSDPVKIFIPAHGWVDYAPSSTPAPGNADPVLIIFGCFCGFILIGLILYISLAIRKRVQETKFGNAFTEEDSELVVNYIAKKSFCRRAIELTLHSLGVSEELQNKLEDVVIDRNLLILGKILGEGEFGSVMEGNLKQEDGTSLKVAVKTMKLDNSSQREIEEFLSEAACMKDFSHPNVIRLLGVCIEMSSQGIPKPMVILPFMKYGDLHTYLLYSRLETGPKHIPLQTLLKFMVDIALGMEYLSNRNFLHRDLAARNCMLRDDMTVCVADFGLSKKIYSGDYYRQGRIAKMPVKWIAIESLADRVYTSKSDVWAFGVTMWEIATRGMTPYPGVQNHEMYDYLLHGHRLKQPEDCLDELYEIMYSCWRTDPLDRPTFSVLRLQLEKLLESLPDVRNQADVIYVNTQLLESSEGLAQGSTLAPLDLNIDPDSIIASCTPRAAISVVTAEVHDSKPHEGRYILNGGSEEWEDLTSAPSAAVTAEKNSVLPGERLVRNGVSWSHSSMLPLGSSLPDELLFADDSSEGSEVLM
Kind of assay: FACS on CHO-K1 cells overexpressing human MerTK, MFI (AF488).

In assay [2] the target is T1, human MerTK expressed on cells. Described as above. The source holds these as a separate data set.
Assay [3] has the same target. Put plainly: FACS on CHO-K1 cells overexpressing human MerTK, MFI (PE). How it is done: To evaluate the binding property to the antigen expressed on the cells, the chimeric monoclonal antibodies were analyzed for their binding to human MerTK overexpressed on CHO-K1 cells by FACS. Briefly, human MerTK overexpressing CHO-K1 (CHO-K1-MerTK) cells were firstly incubated with 5-fold serially diluted mAbs starting at 20 nM at 4° C. for 1 hour. After washing with FACS buffer, the PE conjugated anti-human IgG-Fc secondary antibody was added to each well and incubated at 4° C., for 30 mins. The mean fluorescence intensity (MFI) of PE were evaluated by QuantAnalyzer 16.
To evaluate the binding property to the antigen expressed on the cells, the humanized antibodies were analyzed by FACS as described before.

For another assay, the target named is T2, human MerTK-his protein (human, UniProt Q12866 21-505).
T2 construct: extracellular domain; also called hMerTK-His; human MerTK protein
T2 sequence (looked up): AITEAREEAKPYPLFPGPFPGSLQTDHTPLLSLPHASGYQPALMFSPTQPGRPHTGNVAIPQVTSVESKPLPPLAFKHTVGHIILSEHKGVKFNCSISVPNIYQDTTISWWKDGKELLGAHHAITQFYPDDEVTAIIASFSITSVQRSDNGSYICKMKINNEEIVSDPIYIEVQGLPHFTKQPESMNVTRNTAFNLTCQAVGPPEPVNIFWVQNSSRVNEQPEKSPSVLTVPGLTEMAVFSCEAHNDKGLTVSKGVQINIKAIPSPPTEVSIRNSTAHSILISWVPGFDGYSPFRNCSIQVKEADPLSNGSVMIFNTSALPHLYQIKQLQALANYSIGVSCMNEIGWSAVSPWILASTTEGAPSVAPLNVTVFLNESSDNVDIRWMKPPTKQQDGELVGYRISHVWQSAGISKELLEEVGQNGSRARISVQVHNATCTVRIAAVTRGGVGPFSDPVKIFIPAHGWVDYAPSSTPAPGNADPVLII
Kind of assay: ELISA, plate coated with human MerTK-his, anti-human IgG Fc-HRP, OD 450nm. In general terms: ELISA stands for enzyme-linked immunosorbent assay.

As a reminder, the EC50 is the concentration that produces a half-maximal response. The low end stands for a more potent agent, the high end for a less potent agent.

B1: 265F11B5 chimeric monoclonal antibody (antibody, V domains shown)
VH: QVQLQQSGPELVKPGASVRLSCKASGYTFTTYDINWVKQRPGLGLEWIGWIYPRDGYTKYNEKFKGRATLAVDTSSSTAYMELHSLTSEDSAVYFCTRGYYDNLYYFDYWGQGTTLTVSS
VL: EIVLTQSPTTVAASPGEKITITCSASSIISSNYFHWYQQRPGFSPKLLIYRTSNLASGVPARFSGSGSGTSYSLTIGTMEAEDVATYYCQQGRSVPLTFGAGTKLELK
On to B1, for which the figures for the EC50 in assay [1] and in assay [2] were 0.23 nM and 0.18 nM, respectively.

B2: 10F7D9 chimeric monoclonal antibody (antibody, V domains shown)
VH: QIQLVQSGPELKKPGETVKISCKASGYTFTNYGMNWVKQAPGKGLKWMGWINTYTGEPTYADDFKGRFAFSLETSASTAYLQINNLKNEDLATYFCATYGHYAWFAYWGQGTLVTVSA
VL: QIVLSQSPAILSASPGEKVTMTCRASSSVSYMHWYQQKSGSSPKPWIYATSNLASGVPARFSGSGSGTSYSLTISRVEAEDAATYFCQQWGTKPLTFGAGTKLELK
The molecule B2 had an EC50 in assay [3] of 0.23 nM.

B3: h13B4.v16 benchmark antibody (antibody, V domains shown)
VH: EVQLVESGEGLVQPGGSLRLSCAASGFSLSSYAMGWVRQAPGKGLEYVGIINSYGNTYYANWAKGRFTISRDNSKNTVYLQMGSLRAEDMAVYYCARDPGVSSNLWGRGTLVTVSS
VL: DIQMTQSPSTLSASVGDRVTITCQASQNIYSGLAWYQQKPGKAPKLLIYGASKLASGVPSRFSGSGSGTEFTLTISSLQPDDFATYYCQATYYSSNSVAFGGGTKVEIK
In the case of B3, the response in the assay with human MerTK-his protein was half-maximal at 0.027 nM (EC50). That is a picomolar value.
